Key:
[1] = target: actin binding domain of plectin isoform 1a (P1aABD); assay: ITC
[2] = target: actin binding domain of plectin isoform 1a (P1aABD); assay: SAXS

Kd [1]: 41.7 µM
dH [1]: 3.69 kcal/mol
volume fraction of the complex in solution (SAXS, OLIGOMER) [2]: 54%
B1: first two FnIII domains of integrin β4 (β4Fn12; 1126–1355) (domain or fragment)
chain: DLGAPQNPNAKAAGSRKIHFNWLPPSGKPMGYRVKYWIQGDSESEAHLLDSKVPSVELTNLYPYCDYEMKVCAYGAQGEGPYSSLVSCRTHQEVPSEPGRLAFNVVSSTVTQLSWAEPAETNGEITAYEVCYGLVNDDNRPIGPMKKVLVDNPKNRMLLIENLRESQPYRYTVKARNGAGWGPEREAIINLATQPKRPMSIPIIPDIPIVDAQSGEDYDSFLMYSDDVLR

Reference: article PMC4353693
